The values that follow come from the supplement of paper PMC10065799, “High-throughput profiling of sequence recognition by tyrosine kinases and SH2 domains using bacterial peptide display” (eLife, 2023).

Data set [1] has as its target c-Src SH2. Nature of the data set: SH2 binding enrichment of the phosphorylated peptide, bacterial display (enrichment ratio); higher = better substrate or ligand; peptides without Tyr show the background.
For data set [2], the target named is Grb2 SH2 (UniProt P62993). Described as above.
The target in data set [3] is SHP2-C SH2. The data set is described as above.
The subject of data set [4] is Fer (mouse). Nature of the data set: phosphorylation enrichment, bacterial display (enrichment ratio); higher = better substrate or ligand; peptides without Tyr show the background.
In data set [5] the target is Hck (UniProt P08631). Described as above.
Data set [6] relates to c-Src. The data set is described as above.
The target in data set [7] is MERTK (UniProt Q12866). Described as above.
Data set [8] deals with Fes (UniProt P07332). The data set is described as above.
In data set [9] the target is Jak2 (UniProt O60674). The description is as above.
Data set [10] concerns the target FGFR3 (UniProt P22607). The data set is described as above.
Data set [11] has as its target FGFR1 (UniProt P11362). The description is as above.
The target in data set [12] is Fyn (UniProt P06241). Described as above.
The target in data set [13] is EPHB1 (UniProt P54762). The description is as above.
For data set [14], the system named is AncSZ. The data set is described as above.
Data set [15] relates to c-Abl (mouse). Described as above.
In data set [16] the target is EPHB2 (UniProt P29323). Described as above.
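Wherever SH2 binding enrichment of the phosphorylated peptide, bacterial display is given: peptide library displayed on the E. coli surface as eCPX fusions, selected cells deep-sequenced, score is each peptide's frequency after selection divided by its frequency in the input.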
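Wherever phosphorylation enrichment, bacterial display is given: 11-residue human phosphosite peptides and single-mutation variants displayed on the E. coli surface, counted by deep sequencing, each peptide's frequency after selection divided by its frequency in the unselected input library; frequency after pTyr selection over input frequency; kinase dosed for 20-30% of maximal phosphorylation in three min.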

Sequence of FGFR1 (P11362 whole entry, looked up): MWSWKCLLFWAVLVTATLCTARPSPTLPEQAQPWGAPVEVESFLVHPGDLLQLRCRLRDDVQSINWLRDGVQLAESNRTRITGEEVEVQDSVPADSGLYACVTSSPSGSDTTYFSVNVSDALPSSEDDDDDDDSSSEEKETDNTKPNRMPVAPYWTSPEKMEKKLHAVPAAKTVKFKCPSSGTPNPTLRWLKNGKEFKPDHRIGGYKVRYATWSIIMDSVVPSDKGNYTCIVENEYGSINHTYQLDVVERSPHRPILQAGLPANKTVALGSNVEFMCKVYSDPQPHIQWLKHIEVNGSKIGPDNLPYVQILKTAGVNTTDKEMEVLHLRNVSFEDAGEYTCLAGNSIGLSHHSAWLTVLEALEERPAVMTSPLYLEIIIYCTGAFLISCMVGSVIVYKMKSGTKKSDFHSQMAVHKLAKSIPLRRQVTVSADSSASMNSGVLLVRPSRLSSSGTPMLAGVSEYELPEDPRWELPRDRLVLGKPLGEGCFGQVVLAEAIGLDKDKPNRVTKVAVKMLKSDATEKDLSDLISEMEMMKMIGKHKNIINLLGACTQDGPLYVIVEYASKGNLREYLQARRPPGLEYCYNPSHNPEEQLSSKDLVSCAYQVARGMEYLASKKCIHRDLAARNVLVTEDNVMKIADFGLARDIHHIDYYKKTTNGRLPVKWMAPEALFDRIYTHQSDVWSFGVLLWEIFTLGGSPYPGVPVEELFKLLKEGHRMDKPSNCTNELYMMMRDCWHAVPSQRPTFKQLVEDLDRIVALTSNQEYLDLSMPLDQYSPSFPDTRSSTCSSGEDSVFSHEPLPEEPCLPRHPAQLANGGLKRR
Sequence of Fes (P07332 whole entry, looked up): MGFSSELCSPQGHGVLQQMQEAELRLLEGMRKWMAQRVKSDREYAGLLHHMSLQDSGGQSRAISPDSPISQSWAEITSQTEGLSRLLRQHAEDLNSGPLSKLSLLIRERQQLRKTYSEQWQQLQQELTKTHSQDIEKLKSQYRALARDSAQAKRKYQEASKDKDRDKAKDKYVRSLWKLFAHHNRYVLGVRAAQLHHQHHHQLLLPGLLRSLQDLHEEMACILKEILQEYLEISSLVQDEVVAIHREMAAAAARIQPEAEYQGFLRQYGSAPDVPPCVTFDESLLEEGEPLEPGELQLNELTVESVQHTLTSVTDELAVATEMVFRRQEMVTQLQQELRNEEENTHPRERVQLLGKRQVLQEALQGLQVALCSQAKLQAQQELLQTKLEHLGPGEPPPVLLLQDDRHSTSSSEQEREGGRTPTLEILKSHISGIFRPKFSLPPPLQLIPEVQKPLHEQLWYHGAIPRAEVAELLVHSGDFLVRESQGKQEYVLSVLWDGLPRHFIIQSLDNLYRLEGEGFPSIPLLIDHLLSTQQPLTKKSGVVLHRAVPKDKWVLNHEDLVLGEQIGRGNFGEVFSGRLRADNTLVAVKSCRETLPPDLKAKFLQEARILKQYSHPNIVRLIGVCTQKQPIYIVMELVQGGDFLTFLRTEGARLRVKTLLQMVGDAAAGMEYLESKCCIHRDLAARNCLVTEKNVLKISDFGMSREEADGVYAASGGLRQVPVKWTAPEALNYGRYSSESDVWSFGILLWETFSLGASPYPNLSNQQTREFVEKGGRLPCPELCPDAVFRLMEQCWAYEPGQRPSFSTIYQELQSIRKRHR
Sequence of FGFR3 (P22607 whole entry, looked up): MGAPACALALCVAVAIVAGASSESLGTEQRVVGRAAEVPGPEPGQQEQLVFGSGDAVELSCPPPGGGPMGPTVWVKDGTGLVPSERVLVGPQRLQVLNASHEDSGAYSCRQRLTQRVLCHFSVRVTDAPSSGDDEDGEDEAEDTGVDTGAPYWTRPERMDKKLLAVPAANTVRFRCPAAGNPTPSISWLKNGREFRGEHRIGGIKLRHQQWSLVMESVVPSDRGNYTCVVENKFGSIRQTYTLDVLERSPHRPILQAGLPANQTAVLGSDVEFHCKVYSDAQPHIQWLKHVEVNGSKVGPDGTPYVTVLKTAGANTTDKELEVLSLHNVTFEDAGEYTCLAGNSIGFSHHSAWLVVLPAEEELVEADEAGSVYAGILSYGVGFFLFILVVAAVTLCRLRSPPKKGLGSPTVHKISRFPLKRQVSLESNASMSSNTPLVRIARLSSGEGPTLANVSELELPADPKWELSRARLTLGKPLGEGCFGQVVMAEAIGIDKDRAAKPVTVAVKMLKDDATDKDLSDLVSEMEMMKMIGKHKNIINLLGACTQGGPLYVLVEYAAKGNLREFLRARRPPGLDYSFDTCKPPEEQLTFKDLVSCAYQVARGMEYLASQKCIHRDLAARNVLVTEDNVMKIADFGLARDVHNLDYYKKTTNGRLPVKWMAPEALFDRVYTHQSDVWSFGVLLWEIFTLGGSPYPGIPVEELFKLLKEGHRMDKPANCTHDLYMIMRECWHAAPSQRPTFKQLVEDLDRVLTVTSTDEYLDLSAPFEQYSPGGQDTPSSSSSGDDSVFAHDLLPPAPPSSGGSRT
Sequence of Grb2 SH2 (P62993 whole entry, looked up): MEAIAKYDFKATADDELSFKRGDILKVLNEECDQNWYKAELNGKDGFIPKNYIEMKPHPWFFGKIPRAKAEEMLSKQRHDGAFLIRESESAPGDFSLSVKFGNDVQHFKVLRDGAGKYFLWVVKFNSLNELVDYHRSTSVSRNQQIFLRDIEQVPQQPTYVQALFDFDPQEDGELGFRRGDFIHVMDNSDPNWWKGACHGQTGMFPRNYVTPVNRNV
Sequence of EPHB2 (P29323 whole entry, looked up, the tested form may be a part): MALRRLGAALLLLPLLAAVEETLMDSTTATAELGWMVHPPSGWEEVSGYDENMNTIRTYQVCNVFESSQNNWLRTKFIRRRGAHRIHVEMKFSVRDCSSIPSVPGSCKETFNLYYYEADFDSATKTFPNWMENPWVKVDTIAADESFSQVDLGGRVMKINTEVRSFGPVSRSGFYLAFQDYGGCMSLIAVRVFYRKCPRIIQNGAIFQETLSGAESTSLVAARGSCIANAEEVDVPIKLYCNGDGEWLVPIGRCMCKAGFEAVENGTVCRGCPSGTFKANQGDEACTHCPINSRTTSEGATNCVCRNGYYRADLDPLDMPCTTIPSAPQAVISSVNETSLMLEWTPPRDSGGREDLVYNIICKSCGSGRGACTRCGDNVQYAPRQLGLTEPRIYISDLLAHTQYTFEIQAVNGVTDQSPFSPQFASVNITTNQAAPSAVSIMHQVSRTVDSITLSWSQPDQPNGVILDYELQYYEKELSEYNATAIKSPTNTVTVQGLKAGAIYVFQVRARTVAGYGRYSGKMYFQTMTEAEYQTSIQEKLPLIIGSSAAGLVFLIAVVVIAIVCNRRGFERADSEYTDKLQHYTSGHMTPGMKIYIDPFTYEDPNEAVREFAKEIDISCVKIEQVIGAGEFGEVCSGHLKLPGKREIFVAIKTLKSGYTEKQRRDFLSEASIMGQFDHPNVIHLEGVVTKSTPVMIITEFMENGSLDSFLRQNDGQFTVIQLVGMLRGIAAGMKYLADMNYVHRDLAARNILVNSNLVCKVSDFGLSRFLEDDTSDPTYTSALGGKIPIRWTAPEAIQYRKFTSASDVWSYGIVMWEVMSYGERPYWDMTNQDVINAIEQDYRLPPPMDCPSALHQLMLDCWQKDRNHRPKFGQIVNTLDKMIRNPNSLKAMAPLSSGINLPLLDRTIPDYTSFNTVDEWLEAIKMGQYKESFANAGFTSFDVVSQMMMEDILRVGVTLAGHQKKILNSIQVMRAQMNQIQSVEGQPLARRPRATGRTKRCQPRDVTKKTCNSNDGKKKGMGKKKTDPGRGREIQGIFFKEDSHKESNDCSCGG
Sequence of Hck (P08631 whole entry, looked up): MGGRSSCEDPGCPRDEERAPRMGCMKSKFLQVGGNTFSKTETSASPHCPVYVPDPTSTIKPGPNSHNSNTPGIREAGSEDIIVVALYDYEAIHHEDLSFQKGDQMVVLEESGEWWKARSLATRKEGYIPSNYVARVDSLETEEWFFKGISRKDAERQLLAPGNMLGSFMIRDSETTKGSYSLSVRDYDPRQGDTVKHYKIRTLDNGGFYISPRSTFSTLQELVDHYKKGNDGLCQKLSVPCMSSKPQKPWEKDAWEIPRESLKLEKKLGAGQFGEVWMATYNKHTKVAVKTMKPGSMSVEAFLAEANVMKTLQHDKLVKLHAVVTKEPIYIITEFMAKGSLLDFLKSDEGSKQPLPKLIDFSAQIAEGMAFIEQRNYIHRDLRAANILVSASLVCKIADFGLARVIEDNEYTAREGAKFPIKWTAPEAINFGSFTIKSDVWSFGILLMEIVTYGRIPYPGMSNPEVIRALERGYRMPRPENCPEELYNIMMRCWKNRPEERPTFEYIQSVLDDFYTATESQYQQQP
Sequence of Fyn (P06241 whole entry, looked up): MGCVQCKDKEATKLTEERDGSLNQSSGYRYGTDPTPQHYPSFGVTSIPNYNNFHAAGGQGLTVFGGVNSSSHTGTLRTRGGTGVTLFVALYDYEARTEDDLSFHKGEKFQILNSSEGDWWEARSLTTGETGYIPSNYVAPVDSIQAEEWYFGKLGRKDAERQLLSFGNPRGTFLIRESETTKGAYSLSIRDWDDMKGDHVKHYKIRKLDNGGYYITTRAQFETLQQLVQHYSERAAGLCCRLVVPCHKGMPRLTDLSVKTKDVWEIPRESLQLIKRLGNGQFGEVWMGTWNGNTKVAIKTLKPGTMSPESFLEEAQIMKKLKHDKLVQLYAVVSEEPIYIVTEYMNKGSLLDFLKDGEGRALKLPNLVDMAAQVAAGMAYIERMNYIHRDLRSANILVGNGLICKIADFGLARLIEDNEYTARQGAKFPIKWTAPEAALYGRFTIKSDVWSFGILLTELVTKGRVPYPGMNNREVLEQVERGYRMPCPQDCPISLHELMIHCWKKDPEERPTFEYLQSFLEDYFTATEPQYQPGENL

Take PVKSEYSSIKL [NPC2_Y119_P120S]: the SH2 binding enrichment is 1.95 in data set [1], 0.665 in data set [2] and 4.74 in data set [3]. Moreover, the phosphorylation enrichment in data set [4] came out at 0.702; in [5] it was 1.11; in data set [6], 0.602; in [7] it was 0.5; in [8], 1.06; in data set [9] it was 0.737. Moreover, the phosphorylation enrichment in data set [10] is 0.523; in [11], 0.518; in data set [12], 0.553; in data set [13], 0.579; in data set [14], 0.783; in data set [15], 1.03. In [16], the phosphorylation enrichment worked out at 0.533.
In the case of SVTCTYSPAIN [TP53_Y126_L130I], the SH2 binding enrichment is 0.435 in data set [1], 0.817 in [2] and 0.5 in data set [3]. For the same sequence, the phosphorylation enrichment was found to be 0.743 in data set [4]; 0.749 in data set [5]; 0.684 in data set [6]; 0.466 in data set [7]; 1.83 in data set [8]; 1.37 in data set [9]. Also, the phosphorylation enrichment in [10] was found to be 1.1; in data set [11] it was 0.702; in data set [12] it was 0.615; in [13], 1; in [14], 1.5; in [15] it was 1.08. Further, the phosphorylation enrichment in data set [16] was 0.735.
Take LHAAAYQNALA [UQCRC2_Y182_R183Q]: the SH2 binding enrichment worked out at 0.837 in data set [1], 8.54 in data set [2] and 0.611 in data set [3]. Moreover, the phosphorylation enrichment in [4] is 0.427; in data set [5], 0.45; in [6], 0.393; in data set [7], 0.4; in [8], 0.715; in data set [9], 0.646. The phosphorylation enrichment was 0.476 in [10]; 0.512 in data set [11]; 0.474 in data set [12]; 0.433 in [13]; 1.01 in data set [14]; 0.495 in [15]. Further, the phosphorylation enrichment in data set [16] worked out at 0.423.
In the case of LSAPCYLNRIS [HEXA_Y421_W420C], the SH2 binding enrichment was found to be 0.594 in [1], 1.14 in data set [2] and 0.888 in data set [3]. Moreover, the phosphorylation enrichment in [4] was 0.424; in [5], 0.507; in data set [6], 0.422; in data set [7] it was 0.382; in data set [8] it was 0.82; in data set [9], 0.634. In addition, the phosphorylation enrichment in [10] stood at 0.535; in [11], 0.495; in data set [12], 0.377; in data set [13], 0.447; in [14], 0.825; in data set [15], 0.631. Besides, in data set [16], the phosphorylation enrichment was 0.552.
On to FSMGCYEIFLG [HMGCL_Y198_S201Y_YF], for which the figures for the SH2 binding enrichment in data set [1], in data set [2] and in data set [3] were 0.557, 0.938 and 0.706, respectively. The phosphorylation enrichment in data set [4] worked out at 3.74; in data set [5] it was 3.21; in [6], 6.25; in [7], 4.33; in data set [8], 1.8; in [9] it was 1.51. Besides, the phosphorylation enrichment came to 1.35 in data set [10]; 0.95 in data set [11]; 5.89 in [12]; 2.01 in data set [13]; 2.87 in [14]; 1.28 in data set [15]. For the same sequence, the phosphorylation enrichment in data set [16] worked out at 2.07.
As for ITNHIYTWVDP [DFNB31_Y234_V229I], the results for the SH2 binding enrichment in data set [1], in data set [2] and in [3] were 0.99, 1.05 and 0.791, respectively. The phosphorylation enrichment in [4] amounted to 9.75; in data set [5], 2.66; in data set [6] it was 4.2; in data set [7], 8.78; in data set [8], 1.97; in data set [9] it was 1.06. The phosphorylation enrichment in [10] was determined as 2.95; in [11], 3.64; in data set [12] it was 4.11; in [13], 2.92; in data set [14] it was 2.4; in data set [15], 0.832. The phosphorylation enrichment in [16] was 1.62.
With LTSKPYAFTAQ [NDUFS1_Y236_R241Q], the SH2 binding enrichment in data set [1] was determined as 0.692; in [2], 0.89; in data set [3], 0.906. The phosphorylation enrichment in [4] turned out to be 0.524; in [5], 0.363; in [6] it was 0.345; in [7], 0.411; in data set [8] it was 0.696; in data set [9] it was 0.625. Besides, the phosphorylation enrichment in data set [10] worked out at 0.371; in data set [11] it was 0.445; in data set [12], 0.489; in data set [13], 0.469; in data set [14], 0.542; in [15] it was 0.521. The phosphorylation enrichment in [16] stood at 0.471.
Take SNMPSYSGHFT [GRIN2A_Y1224_T1223S]: the SH2 binding enrichment in data set [1] was 0.548; in data set [2] it was 0.79; in [3], 0.631. Also, the phosphorylation enrichment in data set [4] amounted to 1.6; in data set [5] it was 0.425; in data set [6], 0.463; in data set [7], 0.411; in data set [8], 0.599; in data set [9] it was 0.614. The phosphorylation enrichment turned out to be 0.421 in data set [10]; 0.328 in [11]; 0.465 in data set [12]; 0.417 in data set [13]; 0.476 in data set [14]; 0.444 in data set [15]. In addition, the phosphorylation enrichment in [16] was found to be 0.408.
